Source: patent US20240376218A1 (published 2024)
One block for each binder: values may come before it.

Key:
Test in all cases: cell-based or functional assay
human CCR8 [1] = target: T1, human CCR8 (human, UniProt P51685 1-355)
human CCR8 [2] = target: T1, human CCR8; remark: listed apart in the source
human CCR8 [3] = target: T1, human CCR8; remark: listed apart in the source
human CCR8 [4] = target: human CCR8 (human, UniProt P51685 1-355); remark: listed apart in the source
human CCR8 [5] = target: T1, human CCR8; remark: listed apart in the source
human CCR8 [6] = target: T1, human CCR8; remark: listed apart in the source
[7] = target: human CCR8 (P51685_CCR8_HUMAN) (human, UniProt P51685 1-355)

B2: TPP-20955, afucosylated (antibody, human IgG1, lambda, V domains shown)
VH: EVQLLESGGGLVQPGGSLRLSCAASGFTFSSYGMHWVRQAPGKGLEWVSAIKWGGGSHGYADSVKGRFTISRDNSKNTLYLQMNSLRAEDTAVYYCARGHHKGYDGRFFDYWGQGTLVTVSS
VL: QSVLTQPPSVSGAPGQRVTISCTGSSSNIGAGYNVHWYQQLPGTAPKLLIYTNNRRPSGVPDRFSGSKSGTSASLAISGLRSEDEADYYCAAWDASLSGWVFGGGTKLTVLG
modifications: afucosylated (no fucose on the N-glycan at N297)
- ADCC Max Response (%); activated human Tregs (Donor 1100) as target cells, NK92v effector cells (human CCR8 [4]): 91%
- ADCC hTreg EC50 (pM); activated human Tregs (Donor 1100) as target cells, NK92v effector cells (human CCR8 [4]): 5.82 pM

B4: TPP-21045 (17578-gl79-hIgG1-wt-Lambda), wild type (antibody, V domains shown)
VH: EVQLLESGGGLVQPGGSLRLSCAASGFTFSSAWMSWVRQAPGKGLEWVSGISWSGGSTGYALSVKGRFTISRDNSKNTLYLQMNSLRAEDTAVYYCARTYSGHYGPFFDYWGQGTLVTVSS
VL: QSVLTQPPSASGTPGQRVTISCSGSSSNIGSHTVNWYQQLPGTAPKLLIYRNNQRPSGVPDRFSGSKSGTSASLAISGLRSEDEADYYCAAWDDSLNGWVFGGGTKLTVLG
- ADCP EC50 (pM); activated human Tregs donor 1163 + M2c donor 1 (human CCR8 [5]): 130 pM
- ADCP Max Response (%); activated human Tregs donor 1163 + M2c donor 1 (human CCR8 [5]): 27%
- ADCP EC50 (pM); activated human Tregs donor 1163 + M2c donor 2 (human CCR8 [6]): 162 pM
- ADCP Max Response (%); activated human Tregs donor 1163 + M2c donor 2 (human CCR8 [6]): 27%

B5: TPP-19546, afucosylated (antibody, human IgG1, lambda, V domains shown)
VH: EVQLLESGGGLVQPGGSLRLSCAASGFTFSSAWMSWVRQAPGKGLEWVSGISWSGGSTGYADSVKGRFTISRDNSKNTLYLQMNSLRAEDTAVYYCARTYSGHYGPYFDYWGQGTLVTVSS
VL: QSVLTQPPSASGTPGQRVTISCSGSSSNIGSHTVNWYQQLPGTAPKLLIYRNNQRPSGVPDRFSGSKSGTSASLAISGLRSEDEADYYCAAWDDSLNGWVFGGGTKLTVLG
modifications: afucosylated (no fucose on the N-glycan at N297)
- ADCC Max Response (%); activated human Tregs (Donor 1100) as target cells, NK92v effector cells (human CCR8 [4]): 54%
- ADCC hTreg EC50 (pM); activated human Tregs (Donor 1100) as target cells, NK92v effector cells (human CCR8 [4]): 8840 pM

B7: TPP-19546 (17578-gl33-hIgG1Lambda), afucosylated (antibody, V domains shown)
VH: EVQLLESGGGLVQPGGSLRLSCAASGFTFSSAWMSWVRQAPGKGLEWVSGISWSGGSTGYADSVKGRFTISRDNSKNTLYLQMNSLRAEDTAVYYCARTYSGHYGPYFDYWGQGTLVTVSS
VL: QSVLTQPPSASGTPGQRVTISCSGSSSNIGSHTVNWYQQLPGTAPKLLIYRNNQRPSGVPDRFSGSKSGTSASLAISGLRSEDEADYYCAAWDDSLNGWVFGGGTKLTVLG
modifications: afucosylated (no fucose on the N-glycan at N297)
- ADCP Max Response (%); activated human Tregs donor 1163 + M2c donor 1 (human CCR8 [5]): 15%
- ADCP EC50 (pM); activated human Tregs donor 1163 + M2c donor 2 (human CCR8 [6]): 404 pM
- ADCP Max Response (%); activated human Tregs donor 1163 + M2c donor 2 (human CCR8 [6]): 18%
- ADCP Max Response (%); activated human Tregs donor 1212 + M2c macrophages (human CCR8 [3]): 20%

B8: TPP-17578 (497A-M128-B10-1-hIgG1Lambda), WT (antibody, V domains shown)
VH: EVQLLESGGGLVQPGGSLRLSCAASGFTFSNAWMSWVRQAPGKGLEWVSGINWNGGSTGYADSVKGRFTISRDNSKNTLYLQMNSLRAEDTAVYYCVRTYSGHYGPYFDNWGQGTLVTVSS
VL: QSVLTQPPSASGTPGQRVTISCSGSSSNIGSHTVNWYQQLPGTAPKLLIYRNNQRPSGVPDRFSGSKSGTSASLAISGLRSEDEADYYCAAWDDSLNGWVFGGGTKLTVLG
- ADCC EC50, activated Tregs + NK92v, Donor 1730 [7]: 197 µM
- ADCC Max Response, activated Tregs + NK92v, Donor 1213 [7]: 5%
- ADCC Max Response, activated Tregs + NK92v, Donor 1730 [7]: 8%

B9: TPP-17578 (497A-M128-B10-1-hIgG1Lambda), afucosylated (antibody, V domains shown)
VH: EVQLLESGGGLVQPGGSLRLSCAASGFTFSNAWMSWVRQAPGKGLEWVSGINWNGGSTGYADSVKGRFTISRDNSKNTLYLQMNSLRAEDTAVYYCVRTYSGHYGPYFDNWGQGTLVTVSS
VL: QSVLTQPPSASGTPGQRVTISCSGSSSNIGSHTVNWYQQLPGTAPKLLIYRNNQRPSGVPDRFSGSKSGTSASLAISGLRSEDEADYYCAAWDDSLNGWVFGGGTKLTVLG
modifications: afucosylated N-glycan at N297
- ADCC EC50, activated Tregs + NK92v, Donor 1213 [7]: 9.2 nM
- ADCC EC50, activated Tregs + NK92v, Donor 1730 [7]: 0.019 µM
- ADCC Max Response, activated Tregs + NK92v, Donor 1213 [7]: 25%
- ADCC Max Response, activated Tregs + NK92v, Donor 1730 [7]: 38%

The next lines start with the values.

- ADCP EC50 (pM); activated human Tregs donor 1212 + M2c donor 3 (human CCR8 [1]): 14 pM
- ADCP Max Response (%); activated human Tregs donor 1212 + M2c donor 3 (human CCR8 [1]): 13%
- ADCP EC50 (pM); activated human Tregs donor 1212 + M2c donor 4 (human CCR8 [2]): 13.2 pM
- ADCP Max Response (%); activated human Tregs donor 1212 + M2c donor 4 (human CCR8 [2]): 23%
- ADCP EC50 (pM); activated human Tregs donor 1212 + M2c macrophages (human CCR8 [3]): 408 pM
- ADCP Max Response (%); activated human Tregs donor 1212 + M2c macrophages (human CCR8 [3]): 29%
B1: TPP-20955 (18206-gl-47-hIgG1wt-Lambda), afucosylated (antibody, V domains shown)
VH: EVQLLESGGGLVQPGGSLRLSCAASGFTFSSYGMHWVRQAPGKGLEWVSAIKWGGGSHGYADSVKGRFTISRDNSKNTLYLQMNSLRAEDTAVYYCARGHHKGYDGRFFDYWGQGTLVTVSS
VL: QSVLTQPPSVSGAPGQRVTISCTGSSSNIGAGYNVHWYQQLPGTAPKLLIYTNNRRPSGVPDRFSGSKSGTSASLAISGLRSEDEADYYCAAWDASLSGWVFGGGTKLTVLG
modifications: afucosylated (no fucose on the N-glycan at N297)

- ADCP EC50 (pM); activated human Tregs donor 1212 + M2c donor 3 (human CCR8 [1]): 9.2 pM
- ADCP Max Response (%); activated human Tregs donor 1212 + M2c donor 3 (human CCR8 [1]): 13%
- ADCP EC50 (pM); activated human Tregs donor 1163 + M2c donor 1 (human CCR8 [5]): 30.1 pM
- ADCP Max Response (%); activated human Tregs donor 1163 + M2c donor 1 (human CCR8 [5]): 28%
- ADCP EC50 (pM); activated human Tregs donor 1163 + M2c donor 2 (human CCR8 [6]): 52.9 pM
- ADCP Max Response (%); activated human Tregs donor 1163 + M2c donor 2 (human CCR8 [6]): 28%
- ADCP EC50 (pM); activated human Tregs donor 1212 + M2c donor 4 (human CCR8 [2]): 17.1 pM
- ADCP Max Response (%); activated human Tregs donor 1212 + M2c donor 4 (human CCR8 [2]): 23%
- ADCP EC50 (pM); activated human Tregs donor 1212 + M2c macrophages (human CCR8 [3]): 1220 pM
- ADCP Max Response (%); activated human Tregs donor 1212 + M2c macrophages (human CCR8 [3]): 30%
B3: TPP-21045 (17578-gl79-hIgG1-wt-Lambda), afucosylated (antibody, V domains shown)
VH: EVQLLESGGGLVQPGGSLRLSCAASGFTFSSAWMSWVRQAPGKGLEWVSGISWSGGSTGYALSVKGRFTISRDNSKNTLYLQMNSLRAEDTAVYYCARTYSGHYGPFFDYWGQGTLVTVSS
VL: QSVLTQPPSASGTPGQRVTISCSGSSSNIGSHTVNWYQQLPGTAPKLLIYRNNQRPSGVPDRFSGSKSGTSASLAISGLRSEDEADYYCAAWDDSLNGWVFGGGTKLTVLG
modifications: afucosylated (no fucose on the N-glycan at N297)

- ADCP Max Response (%); activated human Tregs donor 1163 + M2c donor 1 (human CCR8 [5]): 14%
- ADCP EC50 (pM); activated human Tregs donor 1163 + M2c donor 2 (human CCR8 [6]): ~1.69e+07 pM
- ADCP Max Response (%); activated human Tregs donor 1163 + M2c donor 2 (human CCR8 [6]): 18%
B6: TPP-19546 (17578-gl33-hIgG1Lambda), wild type (antibody, V domains shown)
VH: EVQLLESGGGLVQPGGSLRLSCAASGFTFSSAWMSWVRQAPGKGLEWVSGISWSGGSTGYADSVKGRFTISRDNSKNTLYLQMNSLRAEDTAVYYCARTYSGHYGPYFDYWGQGTLVTVSS
VL: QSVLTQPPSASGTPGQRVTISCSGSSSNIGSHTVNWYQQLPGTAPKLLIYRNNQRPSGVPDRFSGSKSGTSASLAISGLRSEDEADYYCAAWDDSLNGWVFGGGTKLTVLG
